The target in assay [1] is human FcγRIIIa receptor, V158 variants (human).
In assay [2] the target is recombinant human TNFα (human) (UniProt P01375). The experiment in a line: SPR. For orientation: SPR reads the build-up and loss of mass on a sensor chip optically.
Another assay addresses Golimumab A (human). Description: SPR; Biacore T200; anti-human Fc antibody immobilised on a CM5 chip, golimumab captured, TNFα as analyte at five concentrations (7.81–125 nM), 30 μL/min, 25°C, 1:1 Langmuir model, KD = Kd/Ka.
A further assay addresses Golimumab B (human). The assay is described as above.

The source of these data is paper PMC9017650.

In assay [1], Golimumab A (antibody) returned an ADCC reporter gene assay, EC50 (Jurkat NFAT-luciferase cells with FcγRIIIa V158 as effector cells, CHO-K1/hmTNFα as target cells) of 0.15 µg/mL.

Broadly, the koff is a measure of how fast the partners let go of each other. In the case of Golimumab A (from UniProt P01857), the koff in assay [2] came to 0.000164 s⁻¹.

Take Golimumab B (antibody): in assay [1], the ADCC reporter gene assay, EC50 (Jurkat NFAT-luciferase cells with FcγRIIIa V158 as effector cells, CHO-K1/hmTNFα as target cells) is 0.152 µg/mL.

Regarding Golimumab B (from UniProt P01857), the koff in assay [2] stood at 0.000149 s⁻¹.

As usually defined, the Kd is the concentration at which binding is half-saturated. For the substance “recombinant human TNFα (from UniProt P01375 77-233) (ligand)”, the Kd is 0.0124 nM with Golimumab A (human) and 0.0106 nM with Golimumab B (human).
